For data set [1], the target named is SusC^dex (B. thetaiotaomicron). The data set can be described thus: cryo-EM structure; dextran utilisome (Bt3087-Bt3090), 0.05 mg/ml in 10 mM HEPES, 100 mM NaCl, pH 7.5, 0.03% DDM; heptamers, hexamers and pentamers; 3.1 Å consensus; AlphaFold2 models of SusD^dex, GH^dex and SGBP^dex docked into the map.
Data set [2] concerns the molecule itself. The data set can be described thus: cryo-EM structure; apo (substrate-free) levan utilisome, 3 mg/ml in 10 mM HEPES pH 7.5, 100 mM NaCl, 0.03% DDM; ~6 Å classes, 3.5 Å focused C2 refinement without SusD.

From publication PMC7618045, “Outer membrane utilisomes mediate oligosaccharide uptake in gut Bacteroidetes” (Nature, 2023) come the findings set out here.

For orientation: stoichiometry N means the number of molecules, sites or subunits per partner or assembly. Take SusC^dex (natural protein): the stoichiometry N in data set [1] stood at 2.

B1: SusC^lev (natural protein, B. thetaiotaomicron, UniProt Q8A6W3 26-1041, looked up)
chain: GQNITVKGNVTSKTDGQPIIGASVVETTATTNGTITDFDGNFTLSVPVNSTLKITYIGYKPVTVKAAAIVNVLLEEDTQMVDEVVVTGYTTQRKADLTGAVSVVKVDEIQKQGENNPVKALQGRVPGMNITADGNPSGSATVRIRGIGTLNNNDPLYIIDGVPTKAGMHELNGNDIESIQVLKDAASASIYGSRAANGVIIITTKQGKKGQIKINFDASVSASMYQSKMNVLNTEQYGRAMWQAYVNDGENPNGNALGYAYNWGYNADGNPVLYGMTLSKYLDSKNTMPVADTDWFDEITRTGVIQQYNLSVSNGSEKGSSFFSLGYYKNLGVIKDTDFDRFSARMNSDYKLIDDILTIGQHFTLNRTSEVQAPGGIIETALDIPSAIPVYASDGSWGGPVGGWPDRRNPRAVLEYNKDNRYTYWRMFGDAYVNLTPFKGFNLRSTFGLDYANKQARYFTYPYQEGTQTNNGKSAVEAKQEHWTKWMWNAIATYQLEVGKHRGDVMIGMELNREDDSHFSGYKEDFSILTPDYMWPDAGSGTAQAYGAGEGYSLVSFFGKMNYSYADRYLLSLTLRRDGSSRFGKNHRYATFPSVSLGWRITQENFMKELTWLDDLKLRASWGQTGNQEISNLARYTIYAPNYGTTDSFGGQSYGTAYDITGSNGGGVLPSGFKRNQIGNDNIKWETTTQTNVGIDFSLFKQSLYGSLEYYYKKATDILTEMAGVGVLGEGGSRWINSGAMKNQGFEFNLGYRNKTAFGLTYDLNGNISTYRNEILELPETVAANGKFGGNGVKSVVGHTYGAQVGYIADGIFKSQDEVDNHATQEGAAVGRIRYRDIDHNGVIDERDQNWIYDPTPSFSYGLNIYLEYKNFDLTMFWQGVQGVDIISDVKKKSDFWSASNVGFLNKGTRLLNAWSPTNPNSDIPALTRSDTNNEQRVSTYFVENGSFLKLRNIQLGYTVPAVISKKMRMDRLRFYCSAQNLLTIKSKNFTGEDPENPNFSYPIPVNITFGLNIGF
notes: SusC^lev, the TonB-dependent outer membrane transporter (SusC) of the levan PUL of B. thetaiotaomicron; Two copies stand in the utilisome (SusC2D2 core); written here without a tag; also called levan SusC; source: endogenous, B. thetaiotaomicron grown on fructose; co-purified from detergent-solubilised membranes (LDAO sample; DDM sample: Ni2+ column, SEC)
In the case of B1, the “stoichiometry N” value in data set [2] came to 2.
